This note sets out measurements from article PMC9470675 (Signal Transduction and Targeted Therapy, 2022).

A word on the Kd: it is the concentration at which binding is half-saturated.

Sequences and labels used below:
B1: SARS-CoV N protein (purified recombinant) (natural protein)
chain: not shown
B2: recombinant MASP-2 (purified) (enzyme, human, UniProt O00187 16-686, looked up)
chain: TPLGPKWPEPVFGRLASPGFPGEYANDQERRWTLTAPPGYRLRLYFTHFDLELSHLCEYDFVKLSSGAKVLATLCGQESTDTERAPGKDTFYSLGSSLDITFRSDYSNEKPFTGFEAFYAAEDIDECQVAPGEAPTCDHHCHNHLGGFYCSCRAGYVLHRNKRTCSALCSGQVFTQRSGELSSPEYPRPYPKLSSCTYSISLEEGFSVILDFVESFDVETHPETLCPYDFLKIQTDREEHGPFCGKTLPHRIETKSNTVTITFVTDESGDHTGWKIHYTSTAQPCPYPMAPPNGHVSPVQAKYILKDSFSIFCETGYELLQGHLPLKSFTAVCQKDGSWDRPMPACSIVDCGPPDDLPSGRVEYITGPGVTTYKAVIQYSCEETFYTMKVNDGKYVCEADGFWTSSKGEKSLPVCEPVCGLSARTTGGRIYGGQKAKPGDFPWQVLILGGTTAAGALLYDNWVLTAAHAVYEQKHDASALDIRMGTLKRLSPHYTQAWSEAVFIHEGYTHDAGFDNDIALIKLNNKVVINSNITPICLPRKEAESFMRTDDIGTASGWGLTQRGFLARNLMYVDIPIVDHQKCTAAYEKPPYPRGSVTANMLCAGLESGGKDSCRGDSGGALVFLDSETERWFVGGIVSWGSMNCGEAGQYGVYTKVINYIPWIENIISDF
notes: also called Purified MASP-2

Assay [1] has as its target B2. Briefly: SPR; purified proteins; who was immobilised and the conditions not given. The following applies: both partners purified. On the technique in general: SPR reads the build-up and loss of mass on a sensor chip optically.
Assay [2] has as its target Purified SARS-CoV-2 N-His (SARS-CoV-2, UniProt P0DTC9 1-419). Described as above. The following applies: both partners purified.

As for B1, the Kd in assay [1] came out at 268 nM.
With B2, in assay [2], the dissociation constant (Kd) was determined as 518 nM.
